This assay deals with T1, recombinant μ4 C-terminal domain (human, residues 160–453) (human, UniProt O00189 160-453).
T1 sequence (looked up): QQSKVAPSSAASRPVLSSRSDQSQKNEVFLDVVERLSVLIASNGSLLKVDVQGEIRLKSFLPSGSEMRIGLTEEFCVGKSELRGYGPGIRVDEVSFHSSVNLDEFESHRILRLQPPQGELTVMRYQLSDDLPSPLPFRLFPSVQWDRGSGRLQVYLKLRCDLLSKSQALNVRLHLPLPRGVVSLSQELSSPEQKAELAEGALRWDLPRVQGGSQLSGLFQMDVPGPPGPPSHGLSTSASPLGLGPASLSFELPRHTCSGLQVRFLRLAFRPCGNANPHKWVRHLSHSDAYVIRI
The assay is described as follows: ITC. In general terms: ITC needs no label: the signal is the heat of the interaction.

The Kd is the concentration at which binding is half-saturated.

Take YPAAISSFDR [ApoER2 peptide YPAAISSFDR]: the Kd worked out at 26.2 µM.

Source of the values: article PMC10979513 (Progress in neurobiology, 2024).
